The labels stand for the following.
B1: 27B9-1G3 (antibody, V domains shown)
VH: EIQLQQSGPELEKPGASVKISCKASGYSFTGYNMNWVKKSNGKSLEWIGNIDPYYGGTNYNQKFKGKATLTVDKSSSTAYMQLKSLTSEDSAVYYCARETWFITTGVIKKGFYFDYWGQGTTLTVSS
VL: EIVLTQSPTTMAASPGEKITLACSASSIISSNYLHWYQQKPGFSPKLLIYRTSSLASGVPARFSGSGSGTSYSLTIGTMEAEDVATYYCQQGSSIPRTFGGGTKLEIK
notes: Murine hybridoma antibody (supernatant or Protein A purified); also called 27B9-1G3 hybridoma antibody
B2: 559E1B10 (antibody, V domains shown)
VH: KVQLQQSGPVLVKPGASVKMSCKASGYTFTDYYVNWMKQNYGKSPEWIGVINPHNGDTRYNQKFKGKATLTVDKSSSTANMELTSLTSGDSAVYYCASWLRRGYYFDSWGQGTTLTVSS
VL: DIVMTQSPATLSVTPGDRVSLSCRASQSISDYLHWYQQKSHESPRLLLKYVSQSISGIPSRFSGSGSGSDFTLTINSVEPEDVGVYYCQNGHSFPLTFGAGTKLELK
notes: Murine hybridoma antibody; also called 559E1B10 hybridoma antibody
B3: 563E10E12 (antibody, V domains shown)
VH: EVQLIESGGGLVQPKGSLKLSCAASGFNFNAYAMNWVRQAPGKGLEWVARIRSKSNNFATYYADSVTDRFTISRDDSESMLYLQMNNLKTEDTAMYYCVRHGRRDLLYSMDFWGQGTSVTVSS
VL: DVVMTQAAFSNPVTLGTSTSISCRSSKSLLHSNGITYLFWYLQKPGQSPQLLIYQMSNLASGVPDRFSGSGSGTDFTLRISRVEAEDVGVYYCAQSLELPLTFGGGTKLEIK
notes: Murine hybridoma antibody; also called 563E10E12 hybridoma antibody
B4: 569D11B5 (antibody, V domains shown)
VH: B3 VH with N57D, T67K, D68G, S79N, Y82F
VL: B3 VL with V2I, T19A
notes: Murine hybridoma antibody; also called 569D11B5 hybridoma antibody
B5: 589D7C7 (antibody, V domains shown)
VH: B3 VH with I5V, T67K, L81V, Q84E
VL: B3 VL with V2I, T19A, G89A
notes: Murine hybridoma antibody; also called 589D7C7 hybridoma antibody
B6: 559E1B10_hIgG1 (antibody)
heavy: not shown
light: DIVMTQSPATLSVTPGDRVSLSCRASQSISDYLHWYQQKSHESPRLLLKYVSQSISGIPSRFSGSGSGSDFTLTINSVEPEDVGVYYCQNGHSFPLTFGAGTKLELKRTVAAPSVFIFPPSDEQLKSGTASVVCLLNNFYPREAKVQWKVDNALQSGNSQESVTEQDSKDSTYSLSSTLTLSKADYEKHKVYACEVTHQGLSSPVTKSFNRGEC
notes: also called hIgG1-subclass chimeric antibody 559E1B10
B7: 563E10E12_mIgG2a (antibody)
heavy: EVQLIESGGGLVQPKGSLKLSCAASGFNFNAYAMNWVRQAPGKGLEWVARIRSKSNNFATYYADSVTDRFTISRDDSESMLYLQMNNLKTEDTAMYYCVRHGRRDLLYSMDFWGQGTSVTVSSAKTTAPSVYPLAPVCGDTTGSSVTLGCLVKGYFPEPVTLTWNSGSLSSGVHTFPAVLQSDLYTLSSSVTVTSSTWPSQSITCNVAHPASSTKVDKKIEPRGPTIKPCPPCKCPAPNLLGGPSVFIFPPKIKDVLMISLSPIVTCVVVDVSEDDPDVQISWFVNNVEVHTAQTQTHREDYNSTLRVVSALPIQHQDWMSGKEFKCKVNNKDLPAPIERTISKPKGSVRAPQVYVLPPPEEEMTKKQVTLTCMVTDFMPEDIYVEWTNNGKTELNYKNTEPVLDSDGSYFMYSKLRVEKKNWVERNSYSCSVVHEGLHNHHTTKSFSRTPGK
light: DVVMTQAAFSNPVTLGTSTSISCRSSKSLLHSNGITYLFWYLQKPGQSPQLLIYQMSNLASGVPDRFSGSGSGTDFTLRISRVEAEDVGVYYCAQSLELPLTFGGGTKLEIKRADAAPTVSIFPPSSEQLTSGGASVVCFLNNFYPKDINVKWKIDGSERQNGVLNSWTDQDSKDSTYSMSSTLTLTKDEYERHNSYTCEATHKTSTSPIVKSFNRNEC
notes: also called mIgG2a-subclass chimeric antibody 563E10E12
B8: 589D7C7_mIgG2a (antibody)
heavy: B7 heavy with I5V, T67K, L81V, Q84E
light: B7 light with V2I, T19A, G89A
notes: also called mIgG2a-subclass chimeric antibody 589D7C7
B9: 569D11B5_mIgG2a (antibody)
heavy: B7 heavy with N57D, T67K, D68G, S79N, Y82F
light: B7 light with V2I, T19A
notes: also called mIgG2a-subclass chimeric antibody 569D11B5
B10: 563E10E12_hzH1L0_VLPLL (antibody, human IgG1, kappa)
heavy: EVQLVESGGGLVQPGGSLKLSCAASGFNFNAYAMNWVRQASGKGLEWVGRIRSKSNNFATYYADSVTDRFTISRDDSKNTAYLQMNSLKTEDTAVYYCVRHGRRDLLYSMDFWGQGTTVTVSSASTKGPSVFPLAPSSKSTSGGTAALGCLVKDYFPEPVTVSWNSGALTSGVHTFPAVLQSSGLYSLSSVVTVPSSSLGTQTYICNVNHKPSNTKVDKKVEPKSCDKTHTCPPCPAPELVGGPSVFLLPPKPKDTLMISRTPEVTCVVVDVSHEDPEVKFNWYVDGVEVHNAKTKPPEEQYNSTLRVVSVLTVLHQDWLNGKEYKCKVSNKALPAPIEKTISKAKGQPREPQVYTLPPSRDELTKNQVSLTCLVKGFYPSDIAVEWESNGQPENNYKTTPLVLDSDGSFFLYSKLTVDKSRWQQGNVFSCSVMHEALHNHYTQKSLSLSPGK
light: DIVMTQSPLSLPVTPGEPASISCRSSKSLLHSNGITYLFWYLQKPGQSPQLLIYQMSNLASGVPDRFSGSGSGTDFTLKISRVEAEDVGVYYCAQSLELPLTFGGGTKVEIKRTVAAPSVFIFPPSDEQLKSGTASVVCLLNNFYPREAKVQWKVDNALQSGNSQESVTEQDSKDSTYSLSSTLTLSKADYEKHKVYACEVTHQGLSSPVTKSFNRGEC
B11: 569D11B5_hIgG1 (antibody)
heavy: not shown
light: B10 light with S7A, P8A, L9F, L11N, P15L, E17T, P18S, K79R, V109L
notes: also called hIgG1-subclass chimeric antibody 569D11B5
B12: 589D7C7_hIgG1 (antibody)
heavy: not shown
light: B10 light with S7A, P8A, L9F, L11N, P15L, E17T, P18S, K79R, G89A, V109L
notes: also called hIgG1-subclass chimeric antibody 589D7C7

Numbering of substitutions follows the chain as printed.

The first test addresses T1, cynomolgus CCR8 (cynomolgus monkey).
T1 construct: whole, on cells; the constructs of the cell lines are not tied to it word for word; also called cynoCCR8
Nature of the test: flow cytometry, hybridoma supernatant on CHOK1-cynoCCR8 cells.
B1 showed an MFI of 14000 MFI.
The same measure, in the same setting: the value for B2 was 21900 MFI.
Still for that read-out and setting: under B3 stands 16900 MFI; under B4, 13200 MFI.
B5: the MFI is 15200 MFI.

The target of a further test is T2, human CCR8 (human, UniProt P51685 1-355). Nature of the test: cell-based or functional assay.
In the case of B6, the “IC50 of blockade of CCL1-induced β-arrestin recruitment” value amounted to 10.2 µg/mL.

In another test the target is T1, cynomolgus CCR8. Nature of the test: flow cytometry on 293T-cynoCCR8 cells. In general terms: In flow cytometry, cells or beads pass a laser one at a time.
A word on the EC50: it is the midpoint of the concentration-response curve. Low readings indicate higher potency in that assay, high ones lower potency in that assay. Regarding B7, the EC50 is 0.0664 µg/mL.
Same read-out and setting: the value for B8 was 0.0662 µg/mL.
Same read-out and setting: under B9 stands 0.072 µg/mL.

A further test deals with T2, human CCR8. Briefly: cell-based or functional assay. The source holds these as a separate data set.
Regarding B10, the “EC50 of activation of Jurkat-human FcγRIIIa(158V)-NFAT with 293F-hCCR8 target cells” value stood at 0.0017 µg/mL.

The target of a further test is T2, human CCR8. Nature of the test: cell-based or functional assay. This is another data set of the same source.
Turning to B10, the “EC50 of activation of Jurkat-human FcγRIIIa(158V)-NFAT with HuT78 target cells” value came to 0.0117 µg/mL.

The target in a further test is T2, human CCR8. Briefly: flow cytometry, competition with 10 nM AF647-human CCL1 on 293F-hCCR8 cells.
What is called IC50 is the concentration that gives 50% inhibition. The molecule B6 showed an IC50 of 0.0549 µg/mL.
The same measure, in the same setting: the value for B11 was 0.0748 µg/mL.
Same read-out and setting: under B12 stands 0.0526 µg/mL; under B7, 0.0411 µg/mL.
Take B8: the IC50 is 0.0579 µg/mL.
Same read-out and setting: under B9 stands 0.0544 µg/mL.

In a further test the target is T2, human CCR8. The description is as above. This is another data set of the same source.
The molecule B1 came in with an IC50 of 0.127 µg/mL.
For B2, the IC50 came to 0.0785 µg/mL.
On the same count and under the same terms, the value for B3 was 0.132 µg/mL; that for B4 was 0.0882 µg/mL; that for B5 was 0.075 µg/mL.

The target of a further test is T1, cynomolgus CCR8. Briefly: flow cytometry on 293T-cynoCCR8 cells. This is another data set of the same source.
On to B1, for which the EC50 came to 0.146 µg/mL.
On the same count and under the same terms, the value for B2 was 0.322 µg/mL.
As for B3, the EC50 stood at 0.591 µg/mL.
Same read-out and setting: under B4 stands 0.444 µg/mL; under B5, 0.298 µg/mL.

The target of another test is T2, human CCR8. Nature of the test: flow cytometry on 293F-hCCR8 cells.
For B6, a half-maximal response (EC50) required 0.101 µg/mL.

In another test the target is T2, human CCR8. Briefly: flow cytometry on 293F-hCCR8 cells. The source holds these as a separate data set.
As to B6, the EC50 is 0.0617 µg/mL.
On the same count and under the same terms, the value for B11 was 0.113 µg/mL; that for B12 was 0.164 µg/mL; that for B7 was 0.0833 µg/mL.
Consider B8, for which the EC50 was determined as 0.0947 µg/mL.
The same measure, in the same setting: under B9 stands 0.0835 µg/mL.

The next test addresses T2, human CCR8. Briefly: cell-based or functional assay. This is another data set of the same source.
Take B7: the “IC50 of blockade of CCL1-induced β-arrestin recruitment (Tango-H_CCR8-CHO-K1 cells)” value (shortened to “IC50 of blockade … (Tango-H_CCR8-CHO-K1 cells)”) was 0.902 µg/mL.
Regarding B8, the “IC50 of blockade … (Tango-H_CCR8-CHO-K1 cells)” value came out at 0.993 µg/mL.
Regarding B9, the “IC50 of blockade … (Tango-H_CCR8-CHO-K1 cells)” value was 0.997 µg/mL.

For a further test, the target named is T2, human CCR8. Briefly: cell-based or functional assay. This is another data set of the same source.
B6: the “EC50 of activation of Jurkat-human FcγRIIIa(158V)-NFAT with 293F-hCCR8 target cells” value amounted to 0.0401 µg/mL.

In the next test the target is T2, human CCR8. Nature of the test: flow cytometry, hybridoma supernatant on CHOK1-hCCR8 cells.
On to B1, for which the MFI was determined as 2660 MFI.
Same read-out and setting: the value for B2 was 7350 MFI.
On the same count and under the same terms, the value for B3 was 6370 MFI; that for B4 was 5800 MFI.
In turn, B5 returned an MFI of 6120 MFI.

The target in a further test is T2, human CCR8. Briefly: flow cytometry on 293F-hCCR8 cells. This is another data set of the same source.
Take B1: the EC50 was 0.15 µg/mL.
With B2, the response was half-maximal at 0.107 µg/mL (EC50).
Regarding B3, a half-maximal response (EC50) required 0.195 µg/mL.
The same measure, in the same setting: under B4 stands 0.159 µg/mL; under B5, 0.361 µg/mL.

A further test addresses T2, human CCR8. Briefly: flow cytometry, competition with 10 nM AF647-human CCL1 on 293F-hCCR8 cells. The source holds these as a separate data set.
B6 showed an IC50 of 0.125 µg/mL.

(Values after patent publication EP4624492A1 (Shanghai Hongcheng Biopharmaceutical Co., Ltd., dated 2025).)
